The target in experiment [1] is SyMRP, MoxR AAA+ ATPase of Synechococcus sp. strain NKBG15041c, with a His-tag at the C-terminus (Synechococcus sp. strain NKBG15041c). Kind of experiment: atomic force microscopy; high-speed AFM, sample on Ni2+-coated mica, washed with 50 mM Tris-HCl pH 7.5.
The target is the same in experiment [2]. Kind of experiment: negative-stain transmission electron microscopy; carbon-coated copper grids, 2.5% uranyl acetate, 50,000x, 100 kV.
For experiment [3] the target is unchanged. The experiment can be described thus: SEC; HPLC gel filtration column SB-804HQ, 50 mM Tris-HCl pH 7.5, 0.1 mM EDTA, 150 mM NaCl, 0.5 mL/min; mass from marker proteins (apparent).
For experiment [4] the target is unchanged. Kind of experiment: AUC; sedimentation velocity, 2.0 mg/mL SyMRP, 50 mM Tris-HCl pH 8.0, 200 mM NaCl, without ATP, 25 °C, 60,000 rpm, interference optics, SEDFIT.
The target is the same in experiment [5]. Described as above. The source holds these as a separate data set.
Experiment [6] shares this target. The experiment can be described thus: AUC; sedimentation velocity, 2.0 mg/mL SyMRP, 50 mM Tris-HCl pH 8.0, 200 mM NaCl, with 1 mM ATP, 25 °C, 60,000 rpm, interference optics, SEDFIT.

“SyMRP, MoxR AAA+ ATPase of Synechococcus sp. strain NKBG15041c, with a His-tag at the C-terminus (enzyme)”: the stoichiometry N in experiment [1] stood at 6; in experiment [2], 6; in experiment [3], 6; in experiment [4], 6; in experiment [5], 2. Besides, the weight fraction w of the 4.18 S component (small oligomer) in experiment [4] is 4%. This substance had a weight fraction w of the 7.60 S component (hexamer) in experiment [4] of 91.4%. This substance came in with a weight fraction w of the 4.26 S component (small oligomer) in experiment [6] of 2.6%. This substance displayed a weight fraction w of the 7.53 S component (main component) in experiment [6] of 90.9%.

As usually defined, the stoichiometry N is the number of molecules, sites or subunits per partner or assembly.

Values taken from paper PMC11432383.
